The test system of this data set is Escherichia coli TOP10. Put plainly: shrunken log2 fold change of peptide-encoding DNA abundance (4.5 h post-induction vs induction); higher = less antimicrobial activity (less host growth inhibition). As to conditions: time post-induction: 4.5 h; library: site-saturation at positions 5, 18, 19, 20.
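Further: peptides expressed intracellularly from a pBAD plasmid library in pooled LB shake-flask culture, induced with 0.3% L-arabinose, DNA abundance read by NGS, three biological replicates, DESeq2 with apeglm shrinkage.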

Consider RRIRVRPPRLPRPRPRPNKGPRP, for which the “shrunken log2 fold change” value was -0.47.
On to RRIRMRPPRLPRPRPRPGQHPRP, for which the “shrunken log2 fold change” value was determined as 0.406.
The figure for RRIRLRPPRLPRPRPRPDWRPRP is 0.0715.
RRIRGRPPRLPRPRPRPCNVPRP: the “shrunken log2 fold change” value was -0.037.
As for RRIRGRPPRLPRPRPRPTQAPRP, the figure is 1.37; as for RRIRLRPPRLPRPRPRPSNVPRP, -0.288; as for RRIRCRPPRLPRPRPRPDKAPRP, -0.0544.
As for RRIRQRPPRLPRPRPRPSGRPRP, the figure is 0.137; as for RRIRKRPPRLPRPRPRPWWTPRP, 0.0991.
Turning to RRIRPRPPRLPRPRPRPLWHPRP, the “shrunken log2 fold change” value was -0.0751.
For the sequence RRIRWRPPRLPRPRPRPCQPPRP, the “shrunken log2 fold change” value is -0.118.
Turning to RRIRSRPPRLPRPRPRPQIMPRP, the “shrunken log2 fold change” value was 1.11.
As for RRIRCRPPRLPRPRPRPKNQPRP, the “shrunken log2 fold change” value was -0.112.
Take RRIRRRPPRLPRPRPRPSHFPRP: the “shrunken log2 fold change” value was -0.262.
As to RRIRHRPPRLPRPRPRPYPRPRP, the “shrunken log2 fold change” value is -0.27.
In the case of RRIRTRPPRLPRPRPRPEQCPRP, the “shrunken log2 fold change” value is -0.01.
For RRIRTRPPRLPRPRPRPRSTPRP, the “shrunken log2 fold change” value stood at 0.377.
For RRIRFRPPRLPRPRPRPVVCPRP, the “shrunken log2 fold change” value was -0.0801.
Turning to RRIRIRPPRLPRPRPRPAHEPRP, the “shrunken log2 fold change” value is 0.215.
Take RRIRPRPPRLPRPRPRPSKGPRP: the “shrunken log2 fold change” value was 0.0318.
In the case of RRIRLRPPRLPRPRPRPCRDPRP, the “shrunken log2 fold change” value was -0.211.
For the sequence RRIRSRPPRLPRPRPRPQSGPRP, the “shrunken log2 fold change” value was -0.101.
As for RRIRERPPRLPRPRPRPKRYPRP, the figure is -0.051.
As for RRIRSRPPRLPRPRPRPNQPPRP, the figure is 0.0618.
Regarding RRIRWRPPRLPRPRPRPVPQPRP, the “shrunken log2 fold change” value came to 0.282.
The figure for RRIRKRPPRLPRPRPRPLCEPRP is 0.446; for RRIRRRPPRLPRPRPRPPLVPRP it is 1.23.
Consider RRIRWRPPRLPRPRPRPMNNPRP, for which the “shrunken log2 fold change” value is -0.606.
On to RRIRDRPPRLPRPRPRPTYEPRP, for which the “shrunken log2 fold change” value came out at 0.127.
The figure for RRIRCRPPRLPRPRPRPYNIPRP is -1.27; for RRIRRRPPRLPRPRPRPQEPPRP it is 0.0839.
As to RRIRNRPPRLPRPRPRPPYEPRP, the “shrunken log2 fold change” value was -0.18.
Turning to RRIRVRPPRLPRPRPRPMLYPRP, the “shrunken log2 fold change” value was -0.375.
As for RRIRYRPPRLPRPRPRPMENPRP, the “shrunken log2 fold change” value is -0.207.
For RRIRWRPPRLPRPRPRPTQTPRP, the “shrunken log2 fold change” value amounted to 0.551.
RRIRTRPPRLPRPRPRPDVIPRP: the “shrunken log2 fold change” value was -0.0157.
As for RRIRNRPPRLPRPRPRPHPSPRP, the “shrunken log2 fold change” value was -0.25.
As for RRIRFRPPRLPRPRPRPGNVPRP, the “shrunken log2 fold change” value was 0.0145.
Take RRIRGRPPRLPRPRPRPCLPPRP: the “shrunken log2 fold change” value is -0.0995.
As for RRIRRRPPRLPRPRPRPEQLPRP, the “shrunken log2 fold change” value amounted to 0.203.
As for RRIRWRPPRLPRPRPRPTHDPRP, the “shrunken log2 fold change” value came to 0.196.
The figure for RRIRLRPPRLPRPRPRPKKHPRP is -0.154; for RRIRTRPPRLPRPRPRPIKPPRP it is -0.0369; for RRIRVRPPRLPRPRPRPNVDPRP it is -0.0826.
As for RRIRQRPPRLPRPRPRPGWKPRP, the “shrunken log2 fold change” value worked out at 0.115.
On to RRIRLRPPRLPRPRPRPCQLPRP, for which the “shrunken log2 fold change” value was -0.8.
Consider RRIRLRPPRLPRPRPRPLPMPRP, for which the “shrunken log2 fold change” value was 0.0573.
With RRIRRRPPRLPRPRPRPWLLPRP, the “shrunken log2 fold change” value came out at 0.0822.
As to RRIRARPPRLPRPRPRPNTDPRP, the “shrunken log2 fold change” value was -0.127.
As for RRIRTRPPRLPRPRPRPFMMPRP, the “shrunken log2 fold change” value is -0.203.
As to RRIRCRPPRLPRPRPRPLFSPRP, the “shrunken log2 fold change” value stood at 2.05.
Regarding RRIRERPPRLPRPRPRPLEKPRP, the “shrunken log2 fold change” value was determined as 0.094.
The figure for RRIRVRPPRLPRPRPRPQFFPRP is -0.0611.
As for RRIRQRPPRLPRPRPRPPNRPRP, the figure is -0.131; as for RRIRMRPPRLPRPRPRPHLKPRP, 0.253.
In the case of RRIRIRPPRLPRPRPRPVCMPRP, the “shrunken log2 fold change” value was -0.564.
With RRIRSRPPRLPRPRPRPRHSPRP, the “shrunken log2 fold change” value was -0.356.
With RRIRVRPPRLPRPRPRPVQAPRP, the “shrunken log2 fold change” value is -0.0106.
As to RRIRNRPPRLPRPRPRPTTGPRP, the “shrunken log2 fold change” value was 0.0259.
In the case of RRIRWRPPRLPRPRPRPAVTPRP, the “shrunken log2 fold change” value came to 0.599.
Turning to RRIRVRPPRLPRPRPRPPQVPRP, the “shrunken log2 fold change” value came out at 0.377.
For RRIRVRPPRLPRPRPRPFLHPRP, the “shrunken log2 fold change” value was -0.13.
Take RRIRKRPPRLPRPRPRPVWEPRP: the “shrunken log2 fold change” value was 0.391.
As for RRIRLRPPRLPRPRPRPTYEPRP, the figure is -0.308.
In the case of RRIRFRPPRLPRPRPRPMVRPRP, the “shrunken log2 fold change” value amounted to 0.0406.
The figure for RRIRHRPPRLPRPRPRPDGRPRP is 0.172; for RRIRFRPPRLPRPRPRPRPSPRP it is 0.433; for RRIRMRPPRLPRPRPRPFHNPRP it is -0.00804.
For RRIRIRPPRLPRPRPRPCLEPRP, the “shrunken log2 fold change” value was -0.808.
As for RRIRMRPPRLPRPRPRPLEMPRP, the figure is 1.4; as for RRIRGRPPRLPRPRPRPCDTPRP, 0.13.
As for RRIRTRPPRLPRPRPRPGVGPRP, the figure is 0.546; as for RRIRNRPPRLPRPRPRPDCLPRP, 0.0127; as for RRIRPRPPRLPRPRPRPQESPRP, -0.0337.
Regarding RRIRLRPPRLPRPRPRPQMVPRP, the “shrunken log2 fold change” value is -0.108.
For the sequence RRIRPRPPRLPRPRPRPIRQPRP, the “shrunken log2 fold change” value was -0.0697.
Turning to RRIRNRPPRLPRPRPRPPEHPRP, the “shrunken log2 fold change” value is 0.266.
Take RRIRNRPPRLPRPRPRPIKAPRP: the “shrunken log2 fold change” value is -0.0167.
Turning to RRIRWRPPRLPRPRPRPGPVPRP, the “shrunken log2 fold change” value came to 0.423.
In the case of RRIRYRPPRLPRPRPRPSEAPRP, the “shrunken log2 fold change” value was -0.096.
On to RRIRRRPPRLPRPRPRPCCSPRP, for which the “shrunken log2 fold change” value is 0.107.
RRIRDRPPRLPRPRPRPAKMPRP: the “shrunken log2 fold change” value was -0.156.
Regarding RRIRWRPPRLPRPRPRPGGAPRP, the “shrunken log2 fold change” value was 0.691.
Consider RRIRHRPPRLPRPRPRPGGLPRP, for which the “shrunken log2 fold change” value amounted to 0.117.
With RRIRDRPPRLPRPRPRPIFYPRP, the “shrunken log2 fold change” value amounted to 0.0295.
Consider RRIRHRPPRLPRPRPRPGHCPRP, for which the “shrunken log2 fold change” value was -0.133.
As for RRIRVRPPRLPRPRPRPYMFPRP, the figure is -0.552.
RRIRVRPPRLPRPRPRPLNHPRP: the “shrunken log2 fold change” value is -0.17.
As for RRIRIRPPRLPRPRPRPSHCPRP, the “shrunken log2 fold change” value is -0.505.
As to RRIRERPPRLPRPRPRPTKPPRP, the “shrunken log2 fold change” value is -0.394.
Regarding RRIRCRPPRLPRPRPRPLKSPRP, the “shrunken log2 fold change” value is -0.154.
Consider RRIRERPPRLPRPRPRPMIGPRP, for which the “shrunken log2 fold change” value is 0.015.
With RRIRPRPPRLPRPRPRPKQQPRP, the “shrunken log2 fold change” value came to 0.214.
As for RRIRPRPPRLPRPRPRPIQPPRP, the “shrunken log2 fold change” value was -0.0445.
With RRIRWRPPRLPRPRPRPKHQPRP, the “shrunken log2 fold change” value is 0.195.
As to RRIRPRPPRLPRPRPRPGSVPRP, the “shrunken log2 fold change” value was 0.0512.
The figure for RRIRYRPPRLPRPRPRPDHGPRP is -0.0075.
For the sequence RRIRNRPPRLPRPRPRPFQSPRP, the “shrunken log2 fold change” value was -0.0983.
Regarding RRIRPRPPRLPRPRPRPCCAPRP, the “shrunken log2 fold change” value came to 0.0786.
The figure for RRIRWRPPRLPRPRPRPWRAPRP is 0.223; for RRIRKRPPRLPRPRPRPDVYPRP it is -0.0383; for RRIRIRPPRLPRPRPRPNYFPRP it is -0.749.
For the sequence RRIRHRPPRLPRPRPRPNRQPRP, the “shrunken log2 fold change” value was -0.0122.
Regarding RRIRYRPPRLPRPRPRPQVSPRP, the “shrunken log2 fold change” value is -0.849.
Take RRIRFRPPRLPRPRPRPWDLPRP: the “shrunken log2 fold change” value turned out to be 2.08.
As to RRIRPRPPRLPRPRPRPTRKPRP, the “shrunken log2 fold change” value was 0.483.
RRIRRRPPRLPRPRPRPDYHPRP: the “shrunken log2 fold change” value is -0.0959.
Take RRIRGRPPRLPRPRPRPATEPRP: the “shrunken log2 fold change” value turned out to be 0.976.
As for RRIRNRPPRLPRPRPRPFYQPRP, the “shrunken log2 fold change” value was -0.8.
As for RRIRTRPPRLPRPRPRPHEIPRP, the figure is 0.00283; as for RRIRMRPPRLPRPRPRPQLRPRP, 0.357.
RRIRSRPPRLPRPRPRPSCFPRP: the “shrunken log2 fold change” value was -0.197.
For the sequence RRIRPRPPRLPRPRPRPQHYPRP, the “shrunken log2 fold change” value is -0.675.
The figure for RRIRTRPPRLPRPRPRPNDIPRP is -0.873.
In the case of RRIRIRPPRLPRPRPRPVQTPRP, the “shrunken log2 fold change” value was -0.0646.
The figure for RRIRSRPPRLPRPRPRPPKSPRP is 0.271; for RRIRIRPPRLPRPRPRPFMTPRP it is -1.01.
As for RRIRHRPPRLPRPRPRPQQMPRP, the figure is 0.00835; as for RRIRERPPRLPRPRPRPPPPPRP, 0.646; as for RRIRCRPPRLPRPRPRPWKMPRP, -0.0124.
As for RRIRCRPPRLPRPRPRPPSIPRP, the figure is 0.0499; as for RRIRHRPPRLPRPRPRPVDAPRP, 0.131.
RRIRNRPPRLPRPRPRPFAFPRP: the “shrunken log2 fold change” value was -0.74.
The figure for RRIRVRPPRLPRPRPRPNSKPRP is -0.506; for RRIRPRPPRLPRPRPRPYPLPRP it is -0.861.

The values are drawn from the supplement of paper PMC9112550, “Optimization of the antimicrobial peptide Bac7 by deep mutational scanning” (BMC Biology, 2022).
